Experimental findings from a protein production outcome set (Wang et al. 2014) are described below.

This series in a line: label from the status in PepcDB records.

For the sequence “MTTPNRFVAGAIDLGEVKARAEARSQAQRAGQSSVTEVEPTVTITMDNVEEQLIKRSMQVPVVVLIGTPRSPDSEQLRAD”, the protein production result was “failed”.

On to “MTTPSRRILILVGHPDPAPERFCRALAEAYAQGAMEGGHEVRRADIGSMDIALLESQAAFQVDDAPQSIRDLRADIVWAEHLVLVFPLWLGGAPAKLKAALEQVCRGGFGFEVGPRGWSSKLAGRSARMVLTMGMPSAIFRLVFGSHGLKAVTQGIFMLAGVKPRRASIIGGVEAIGAGGRSRWLKRMGHLGEAAR”, for which the protein production result is given as “failed”. For “MTTPTPTPTPTSQSLAAPFAQGVEGVYFDGRSSRDRAATLRVLGSGDLSSGAPLAVLRVAPTDGEPGSEQQWPLRQVQFDPPLAGVRRVVKLPDGGRFETNDDRAITALEAAVGRNRGLRGVRRLESDWGLTLGAVVTLGLFVWGFLTYGLPAMARSAAAATPRSVLTSFDTSAIEVLDNGTFMGPTHLSAARQAQLQREFKDVAQWAGGGYPYRLLLRDGTPQANGDKDSPAPSGSIGTNAFALPGGTVVMTEQLVKLAHSDRELMGVLAHETGHVTHRHSLSSIYQGLGLTLLTTAVTGDLIGASTFAAAVPTWLLKNGYSRQSETQSDEVAGRFLMERYGTTKPLRDVLARLETEDENADENSVKRDDPGAFLQTHPGTAERIRHLREIEQNWPQRRGK” the value was “failed”; for “MTTRLLQLTRPHYRLLSLPLQKPFNIKRQMSAANPSPFGNYLNTITKSLQQNLQTCFHFQAKEIDIIESPSQFYDLLKTKILNSQNRIFIASLYLGKSETELVDCISQALTKNPKLKVSFLLDGLRGTRELPSACSATLLSSLVAKYGSERVDCRLYKTPAYHGWKKVLVPKRFNEGLGLQHMKIYGFDNEVILSGANLSNDYFTNRQDRYYLFKSRNFSNYYFKLHQLISSFSYQIIKPMVDGSINIIWPDSNPTVEPTKNKRLFLREASQLLDGFLKSSKQSLPITAVGQFSTLVYPISQFTPLFPKYNDKSTEKRTILSLLSTITSNAISWTFTAGYFNILPDIKAKLLATPVAEANVITASPFANGFYQSKGVSSNLPGAYLYLSKKFLQDVCRYRQDHAITLREWQRGVVNKPNGWSYHAKGIWLSARDKNDANNWKPFITVIGSSNYTRRAYSLDLESNALIITRDEELRKKMKAELDNLLQYTKPVTLEDFQSDPERHVGTGVKIATSILGKKL”, “failed”; for “MTTRRLALFDLDHTLLPLDSDYQWADFLARTGRAGDPAEARRRNDDLMERYNRGELTAEQAAEFMLGLLAAHSPVELAAWHEEFMRDVIRPSLTAQAVDVVRGHLAAGDLCALVTATNSFVTAPIARAFGVQHLIATDPEYRDGRYTGRIEGTPSFREGKVVRVNQWLAGMGLALGDFAESYFYSDSVNDVPLLEAVTRPIAANPSPGLREIAQARGWQVIDLFDHLEDAKS”, “not failed”. Turning to “MTTSKVTYQGDLRTSAIHLQSNNEIITDAPVDNQGKGEAFSPTDLLATSLASCMLTIIGIKARDMEIDIAGTTAEVTKVMAADPRRVSEVHIAITFNQELDDKTQKIFYNTALTCPVAKSIHPDIFQKVIIHSKSY”, the protein production entry was “not failed”. “MTTWKELTDNNPAHSENYAQRWRNLAAAGNDIYGEARLIDAMAPRGAKILDAGCGQGRIGGYLSKQGHDVLGTDLDPILIDYAKQDFPEARWVVGDLSVDQISETDFDLIVSAGNVMGFLAEDGREPALANIHRALGADGRAVIGFGAGRGWVFGDFLEVAERVGLELENAFESWDLKPFVQGSEFLVAVFTKK”: the protein production result is “not failed”. Then “MTVAPTTHVPPARPAAYRELVRQRNSFTVAMTLTFLVLYFLLPLLAGYNKPLMATKVFGNVTFGYVLAFLEFLMGWVMAAIYVRKARTFDRLALEAQVPGGGA”, with “failed”; and “MTVDEWRLLDVSTAFGSGENSVPDFGESADDDAVVVWLVKGEEAVEKLSEIVFGVNLVLENHLKHGLSEI”, with “failed”. For “MTVELLNEPLSRYPAFDTADPEELRQALSSVYGAKLVEGPIAADFHARSNFVQLDDIALAFGVGTGSIAVEFPEGECARLQIALSGQFTTRSGGTSTAINARQAGIISPGRNARTEYGQNYSFTLLRVSTSALERKLTTLLGCKPKASLEFEPAANNEAPQVVNLRRMLCFLANQLNCSPLPPVVLAELQEAITLLFLSAFRHNYSRQLERESHGIAPKHVRQVEEYIEANWMRPITIEKLTALTGISSRGIFKAFQRSRGYSPMAFAKRVRLQHAHNLLSDGATPTTVTAAALSCGFSNLGHFARDYRDMFGEKPSETLQRARP” the value was “failed”; for “MTVGIIGAGNIGGAFATALGKAGIEAVIANSRGPESLTALVSKLGSTIRAGSVPEAAAQAIVLVAVPWSKIPGALAGLNFGDRIVIDANNSIEAPLYRPADLGGRTSTDIFTALVPGARVVKAFNHLTPKQLSGDPHSEGGRRVLFYSGDDMRAKAEVGAIIDRIGFFGIDLGGLPVGSQLLQFPGGPLPALNLVKFD”, “failed”; for “MTVKHLAIAPEGKKSLRLSWTNVAFFTTIHALALLAPWFFSWSALGLLLFLHWLFGSIGICLGYHRLLSHKSFQVPKWLEYAIATIGALAMQGGPIFWIGGHRQHHAHTEDVYLDPYSSQRGFWWSHMLWILYPRSEFFDYEIYQKYAPDLARQPFYRWLDRYFLLLQIPFGLMLYAIGGWSFVIYGVVLRAVLLWHSTWFVNSATHMWGYRTFNADDNARNLWWVSIVTYGEGWHNNHHTYPNVAKAGFQWWEVDVTWWSIKLLQTLGLAKKVVLPPSQRMNQG”, “failed”. Consider “MTVLDKVNDPTDIKALTPLELEELATNVRDAILNRVSQYPGGHLGPNLGVVEMTIALHKVFNSPVDKLIWDVSHQSYPHKVLTGRKEFFTDKDKFSGTTGYTDPEENEHDFIRVGHTSTSIATAMGYALARDVQGKKENIVAIIGDGALSGGLAFEGLDGAGTLNGNLIIIVNDNEMAITENHGGIYQHLADLRASKGTSANNLFKSFGLDYRYLEEGNDIQSLIVLFESVKDINRPIVLHIHIEKGHGYKPAVENKEGMHQVFAPFDIATGQPVNSSTNIVRSYNNVFLDFMEEKLAKGDNLIAINAAIPMFFGLSQFAKNHPKNYVDGGIAEQYTVTLGGAIAAAGTRAIIFQNATFLQRAYDQLNHDLALNKEPAIVIISNSQIGGTNDTHQGSFVYSQTSNIPNVIDLAATSEEDLFAMLNWAYNQHEHPVFIHLPEHTLENRPTKITDFSKPQYEVVKSGEKVAILGLGAMLEKAENVAEELEKSGFNPTVVNPFFANLLDVAALDKLSETHGLFVTIEDGTKDGGFGQKVATYLASKGIKTLVYGADTEFIDAVPKEELYNRYHIRPELMATDIIEATKESKGPNFFKKIFSKLEHHHHHH”, for which the protein production entry is “not failed”. For the sequence “MTVLIIGMGNIGKKLVELGNFEKIYAYDRISKDIPGVVRLDEFQVPSDVSTVVECASPEAVKEYSLQILKNPVNYIIISTSAFADEVFRERFFSELKNSPARVFFPSGAIGGLDVLSSIKDFVKNVRIETIKPPKSLGLDLKGKTVVFEGSVEEASKLFPRNINVASTIGLIVGFEKVKVTIVADPAMDHNIHIVRISSAIGNYEFKIENIPSPENPKTSMLTVYSILRTLRNLESKIIFG”, the protein production entry was “not failed”. Regarding “MTVPEEAQTLIGKHYRAPDHFLVGREKIREFAVAVKDDHPTHYSEPDAAAAGYPALVAPLTFLAIAGRRVQLEIFTKFNIPINIARVFHRDQKFRFHRPILANDKLYFDTYLDSVIESHGTVLAEIRSEVTDAEGKPVVTSVVTMLGEAAHHEADADATVAA”, the protein production result was “failed”. For “MTVPHPESVGEPGIAVRAPARRRSAWHGQAPVVAVVALGGGIGGTARYAAALLWPTQSGGFPWTTFWVNVVGCAVIGVFMVVITDVWPAHRLVRPFFGTGVLGGFTTFSTYAVDIQKLVDAGHPRTALAYLAATLLAALAAVRLAATAARRVLVRRRR” the value was “failed”; for “MTVPLYKQIASLIEDSIVDGTLSIDQRVPSTNELAAFHRINPATARNGLTLLVEAGILYKKRGIGMFVSAQAPALIRERRDAAFAATYVAPLIDESIHLGFTRARIHALLDQVAESRGLYK”, “failed”; for “MTVRTRVTDLLEIEHPILMGGMAWAGTPTLAAAVSEAGGLGIIGSGAMKPDDLRKAISELRQKTDKPFGVNIILVSPWADDLVKVCIEEKVPVVTFGAGNPTKYIRELKENGTKVIPVVASDSLARMVERAGADAVIAEGMESGGHIGEVTTFVLVNKVSRSVNIPVIAAGGIADGRGMAAAFALGAEAVQMGTRFVASVESDVHPVYKEKIVKASIRDTVVTGAKLGHPARVLRTPFARKIQEMEFENPMQAEEMLVGSLRRAVVEGDLERGSFMVGQSAGLIDEIKPVKQIIEDILKEFKETVEKLRGYIEE”, “not failed”. For “MTVSHHNASTARFYALRLLPGQEVFSQLHAFVQQNQLHAAWIAGCTGSLTDVALRYAGQEATTSLTGTFEVISLNGTLELTGEHLHLAVSDPYGAMLGGHMMPGCTVRTTLELVIGELPALTFSRQPCAISGYDELHISSRLEHHHHHH” the value was “not failed”; for “MTVVTFLAFLIPILVLAAIGGVVWWFWMKLRYKTARSNEALIIAGPKLGDPKKETNIFTDNEGRSIKIIRGGGHLLKMHQTATPVDLTSFQLKLTTPRVFTNGGVPIIADAVAMVTVSDTLKGIAIYAEQFLGKEQKEIESEISEVLNANLRAILSKMTVEQINEDREGFNLQVTEVAQKQLDSMGFKITSLGLQDLRDADKENGYLENLGRPRIAEVRKRAEIAESNSDKETRIHKANNDKEAKEQEFQRKIEIAAALKEKDLKDAAIKEETERARAKAEQSYLLEKAKLDKEVQEEELQLLARKKEEELRIKHLERERAVKLEEEEAKVRRAKADADFYETTRKAEADAEKARIEGETKARIKREEGLAEAEVIRKRGEAEAEAKRLLAEAIAKHGEVIIIEKLIEMLPQFAESISKPLSNIESVKIIDTGNGNGVSSYSKSITNTMAQIQEPLKELTGLDVSKLLTDLVNRGNTHTVVRTEAVPTDHHGSPVAASTESEEPVEDQPLENSDSEEKLEHHHHHH”, “not failed”. For “MTWLIISGLVVGALLGFVMQRTRFCLAGGFRDMYIQKSNKMFYALLIAISVQSIGLLLLTSTRLVEIPESTYPIIGTVIGSFIFGLGIIMAGGCATGTWYRAGEGLIGSWMALIAYAFTSAATKFGLLLPLMNGLNKPTNVNTSMSQTTGIPTWVFVIVLIVITLFFVVKTLRKPKFAVPKLKQKFTGIRHYLFEKKYHPFVAAIAVGLIALLAWPVSESTGRMYGLGITTPSANLVQFFVTGDLKLLDWGVFLVLGIFFGSYIAAKGAKEFKWRLPDKKTIRNSIIGGVLMGFGASVAGGCSIGNGLVETATMSWKGWIALASMILGAWTMSYFVFIRPMKKAQSQTSNTKVSSQTQTS” the value was “failed”. As for “MTYCLGIVTQAGLIMAADSRTNAGIDYISTYQKLFDFSLPGDRTIVICCSGNLSITQAVLSQLRRDLAGHFDINLHSLPTMYDLARYLGQKVRQLQESDRDWLKQDGIDFYCNFLLGGQIRGGPIELYLVYGQGNCIHATPETPYLQIGETKYGKPILDRTISFDTSLDMAAKCALMSLDSTMRSNLSVGPPLNLARYERDSLVAPMLVQFPAGHEYLVEMRRRWEISLKDAFMRLPDIDWSRQLMRSLSPVSESVPLEHHHHHH”, the protein production result is reported as “failed”.

Consider “MTYCLGVKLKDGLVAIADTRITSGTDTTTAKKLFVHESAHGSLFLMTSGLRSVRDKAITYFKEVLKDEHVVYNQLYEAVNAFGNQLRRVAEEDRKALYAAGFAFNLHTIVGGQLKNDEEPKMFLLYPEGNWIELTQTSPFMIIGNSGYGKPILNRTVKYESTLEEVLKAGFLSFDSTRVSANDVDFPLDVVVYYNNSFKMIEHRFEKKDMEIISTTWDNQLKQALDSVPEEWMNVVFDRKNVLLEHHHHHH”, for which the protein production entry is listed as “failed”. “MTYKELATFLKVLSDSSRLEILDLLSCGELCACDLLAHFQFSQPTLSYHMKALVKTNLVTTRKIGNKHLYQLNHNIFESVINNLSKVHTSNQRCICHNLKTGEC”: the protein production entry was “failed”.
